Results published in patent publication US20100323397.

Biological target: T1, wild type (WT) VirD2 protein, Agrobacterium tumefaciens str. C58 (UniProt P18592)
T1 sequence: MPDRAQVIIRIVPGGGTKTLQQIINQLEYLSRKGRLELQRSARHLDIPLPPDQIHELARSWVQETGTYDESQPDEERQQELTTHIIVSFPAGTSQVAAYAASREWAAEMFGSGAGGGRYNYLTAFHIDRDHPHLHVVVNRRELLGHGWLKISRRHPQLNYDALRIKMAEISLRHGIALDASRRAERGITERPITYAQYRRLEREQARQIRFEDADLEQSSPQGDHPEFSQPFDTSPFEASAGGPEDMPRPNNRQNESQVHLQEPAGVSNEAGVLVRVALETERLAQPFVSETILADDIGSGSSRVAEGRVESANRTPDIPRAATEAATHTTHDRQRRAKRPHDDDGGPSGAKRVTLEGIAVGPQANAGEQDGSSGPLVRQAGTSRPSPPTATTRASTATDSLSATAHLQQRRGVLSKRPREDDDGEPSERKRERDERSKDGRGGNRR

## plant caspase (putative subtilisin-like (serine) protease, PSLP) from tobacco
  Western (immunoblotting) analysis of degradation by plant caspase: degradation of wild type (WT) VirD2 protein by plant caspase (lane 2)
